Data as given in patent US20220387572A1 (CRISPR THERAPEUTICS, published 2022).

Target: T1, CD70 on human CD70+ renal cell carcinoma cell lines (A498, CD70 high; ACHN, CD70 low) (human, UniProt P32970 1-193)
T1 sequence (looked up): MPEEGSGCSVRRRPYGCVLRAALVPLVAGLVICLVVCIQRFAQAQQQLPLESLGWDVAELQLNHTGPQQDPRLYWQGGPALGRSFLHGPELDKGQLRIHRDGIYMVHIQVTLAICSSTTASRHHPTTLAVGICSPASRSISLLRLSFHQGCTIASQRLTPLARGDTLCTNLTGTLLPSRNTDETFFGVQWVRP
Test: cell-based or functional assay

B1: anti-CD70 CAR (CD70B scFv with 41BB), expressed on CTX130 cells (TRAC-/β2M-/CD70-/anti-CD70 CAR+ T cells) (other)
chain: QVQLVQSGAEVKKPGASVKVSCKASGYTFTNYGMNWVRQAPGQGLKWMGWINTYTGEPTYADAFKGRVTMTRDTSISTAYMELSRLRSDDTAVYYCARDYGDYGMDYWGQGTTVTVSSGGGGSGGGGSGGGGSGDIVMTQSPDSLAVSLGERATINCRASKSVSTSGYSFMHWYQQKPGQPPKLLIYLASNLESGVPDRFSGSGSGTDFTLTISSLQAEDVAVYYCQHSREVPWTFGQGTKVEIKSAAAFVPVFLPAKPTTTPAPRPPTPAPTIASQPLSLRPEACRPAAGGAVHTRGLDFACDIYIWAPLAGTCGVLLLSLVITLYCNHRNRKRGRKKLLYIFKQPFMRPVQTTQEEDGCSCRFPEEEEGGCELRVKFSRSADAPAYQQGQNQLYNELNLGRREEYDVLDKRRGRDPEMGGKPRRKNPQEGLYNELQKDKMAEAYSEIGMKGERRRGKGHDGLYQGLSTATKDTYDALHMQALPPR
cell killing (CellTiter-Glo), TRAC-/β2M-/CD70-/anti-CD70 CAR+ T cells on CD70+ A498 cells, 24 h, T cell:A498 ratios 1:1 and 0.5:1: > 90% | cell killing (CellTiter-Glo), TRAC-/β2M-/anti-CD70 CAR+ T cells (2xKO) on CD70+ A498 cells, 24 h, T cell:A498 ratios 1:1 and 0.5:1: < 90%
